Measured values taken from the supplement of paper PMC12636428.

What follows are sequences tested on Saccharomyces cerevisiae (assay: transcriptional activation domain activity (GFP:mCherry ratio, weighted mean of sorted bins, harmonized to initial dataset scale) (arbitrary fluorescence ratio units); higher = stronger transcriptional activation). Conditions: beta-estradiol 1 µM; induction time 4 h.
Procedure, shortened: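 After a 1:5 dilution into SC with 1 uM beta-estradiol and 4 hours at 30 °C, yeast diploids carrying a GFP reporter and URA3-integrated barcoded tiles were sorted into 8 bins by GFP:mCherry ratio. The tiles were fused to an estradiol-inducible synthetic transcription factor. Barcodes were sequenced, tiles below 50 reads were discarded, and activation activity was taken as the read-weighted mean of bin median fluorescence, averaged across barcodes and linearly mapped onto the initial dataset scale.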

Row | Sequence | transcriptional activation domain activity
1 | KKLTRGKGKKSKGKKARSNAKRSKGKGKVTKEDTSDEEDEEEGEEERGEEEEE | 12500
2 | TNLLDRFQTYMERSRFHLLDLLFDFSSHFSAPLMKLAMQHARRWRRFSIFAFW | 45100
3 | EPAVVKAVAAVAAQDGGDGREEHRREKKKKKKKREKREKRELVAGQEGGGGEG | < 6570
4 | VILYLLMLIGNVTVVSWIVSLFFLSRKSYLKLGFKMVLVRKWYFKNVCQYVDY | 67400
5 | MMHCLRYFLLLLFLPFPSAPPYLLLLFIVSMFLYHRPCAYCTFLIMSIFSATC | 76700
6 | PTLLVALLALLIPHILIFIAKKINTIMTLSALHDRLMIRYYKFLVINVLVFFC | 39300
7 | SDESTKADSGNKDNPGGAEKSGDEKEKEKDGGTSRMRSRKGKFRKNKAEDIEK | 30400
8 | AGLIVLSGRFNGVVRCLREGFRLRTNIDKCMIFYISCKIALISLFTLLLLVEG | 46100
9 | SGSNINNNDNVKLPSNFKNYYDPPMSSLDISMDVPDIFGSLDFFDYDLLFQND | 179000
10 | MLQIRSFVIAAFALPLCLLFCFFTLPFFALCPFLLYFPSFSILLLRLMLHLLV | 49200
11 | MQTSLLPLFSFLSFLFLLVFLLLLSLYLAFSHVAFSFLSLFFCYISFFLFYSF | 26200
12 | GSSGRRVRILGVCGLGRNYVMMRVIELGGILEGEVTIRRMAVSSHPSSVWIAT | 67500
13 | CASPIFRLKYLYKIPSGIAAMAHIFSVVNHFTFFELMWLMERWNFRRALLGLM | 62900
14 | HVDSYLRYLISHCKGRISSRGLVTARFLERRMRHLVWLLKVECVKWEYSPYTR | 79400
15 | FVLDTFLWYIIWNTDIYTRLPKRIYAKILATADMEVKYKPKVLVSQIWNAVLI | 14000
16 | ADKKAKKAAPPPKPESSSSSDSSESDSDAPKAAATVKAAAAAVKKAGKKAVAS | 60900
17 | FHLPCLSLRWWRWCWGHYRLILVVLCLVLLPCLVFLDTIYVYKAFFQIKLENT | 34500
18 | MVSFFFSLCFSSFSYLLFPHFLSFFLFFSLCCHFFPFVSTFPPILFFIMNVSF | 67100
19 | PFFSLDNIMATFDTSTGKLRIWGIRAKPRFVWFCSKEHLLPCMNVKMIRYNSI | 64600
20 | LFHVDLDKMYLMMITLCITWIHACLNVYQIHLLSLLNQWNVISSCLGLLVIVL | 41900
21 | MPRPFSFFFSFLLFLLFFFSIFFIFLFLLFFFLVKGIWTTYKYVLVTCLYLVI | 32700

Row | Sequence | transcriptional activation domain activity
22 | LPDKGKSTEIMTSKLVGRHEFLPVPDFEDQIRRLYENLLISLLSDTQLLIVAW | 55800
23 | MFLPIVPFMLMLLRLLRLLRLLMLLMLLMLLPLFLFLFLLVMLCLFPLILLLL | 56200
24 | LLIFVLFYYNCMKILYGIFGFIILGVLGLFGYYISSMLLWLYNVPFDYISFFF | 68500
25 | TFTDIPVVVCHVFKQKLAKLMSNLCTMFPNAGWLVYSITSIEFQKHGVTHRND | 51100
26 | MPPRYIRYADRAVIENLSWYYWVFNPIMIGLYGPVRTIIDIYFRYFYNCILLF | 40100
27 | EPEQVEAVVEVEEKQEEVKPVEEEIKVEQPVVEQQQEEPTPVVSQVPASTPLP | < 6570
28 | IRYLDHTQLLGEPLLKRTFMGGHIFIPTLIDTALCQSYFSSHILDILRHLTFS | 63300
29 | GDFESKCYLFEPSELRFPPHVFSLTNGRLYRRWYFLDLQSGMLFRFFYICDWR | 32700
30 | MGSGFCNGVFFYYLFFFFISLCVILSSFLLFFFSLPLFLGGLFFSTFLFLDAR | 58900
31 | MWHWLFYLFFSFFLQFLLFLFSFSSSFNFFYFCFPFLLFSVSFFCFCFWFLFF | 50000
32 | MTSWPLLPPYSIHAMIKMIAFSSLFCSFFSLHLFFYYYLPLYIAVFIFFIVTH | 32400
33 | GCDYVFSMYVLGAGLWLFIFYLPPIVFSIVCLCYLTLIWAVSWVLLWCLIFIL | 53900
34 | FFGSLMGGALARPQDHWPELFAHPFWTTHPYFLPSASSDCVLLLIIFISLFFL | 77800
35 | MLSYGSFFFLIFFVFFVISLGFLLSCSWMLYSHIWCCDGPRIFFLFVNLLFVS | 38300
36 | GSSQNTDQPHKSRKKRQREQDEDDTSTNKRSHRKSKKHKSSRKHKSSRKTAKT | 25100
37 | VTSAKPVQNAGKSRPTSPKPKNVEEREEEKPEVKPVAASPVKATPAPTAAAPV | 29000
38 | QWSVMTYLYLAVRYFGIFLAMICSYWGGLFYIPETVSHVMFLLMQWSYSVYFC | 78000
39 | SVMKTLLDERRTSGTQPTTAPVAAEEPRLENVALENFVSIGWKLLDDSELGWY | 71200
40 | ILLPIFGLANRDKNVELMRWALKQCNRTLRRKRAHIWYFSRWLMRPMLPQQRS | 66600
41 | VRVRVRVQGREQVQVQVRELHPEQGHPHQEQEPLHLAREHHPELHQQKDQEHL | 52900
42 | MCPVLFCFYSLMILIFFLSFLFRTSYIYTLYFPGLFVCCLFFLFLLFLSLSQW | 73200

Row | Sequence | transcriptional activation domain activity
43 | MKRVYKLNTCLFFYNSYNPFHIYFYSFIHSNMPAMYHLFSILLLWLNCLSLVQ | 44500
44 | NSSSNNNVSTVPSSMMHSSTLNGTSGLGGDNDDNMLALSLATLANSATASPRL | 27900
45 | MTMRKSFEYSFSREIYFLFFFLFFSFLFFLSFLSFSLSLFFFFPLHPGLFRLV | 54400
46 | EKSEGANGEAGGEGSRRRASGRGRLRGRGRNGRGGRGGRAGETTDDKKEGEAT | 26100
47 | LVSALWVLNTLHSALMFHLVYHYLILNAFDLFELSQNVWSLPASMIVHLIMAF | 47500
48 | MFQIHFLLFFFFFFSFFLLLLCFDVSILEVYFYKLLLFSFFFMMIVDLFFLFL | 60300
49 | DNESDAEPQQEKSKSQSRRRQSRGRGRRGADSGAESDARSDVSQSGGRRNRQR | 44200
50 | SLSSSRVLGEHGNGPDGEGGFVHVSYRISLDEENELQMRVRPSERGGGEGVDG | 39200
51 | MFSWLYLSYFQPLWRAFISLFIFLRTLHQSSPSIFFISIILLFICFPLAMFAV | 19200
52 | RLFALLHLHILAYISFFISSSLAYHLHLFLLLLSYFSLLFCIFVSPRLGLSSC | 66400
53 | VHLTLNLGTYLRVISIGKPFPMWLDYWYNYGYILYCAILQLYELWQIVILIWL | 60100
54 | KFKTFPLFLPRINFHSIPSFNILLSSFPNSIFLNVLFRISLYYIWAYFLWCAL | 52000
55 | MDKLVQYEHTFLPPPHMQYLSYFDCLENLAHYIDAIHPNNLNMWFFLIYDQCI | 63300
56 | IPSSQSRDIANDYDRGSTDNNLVTTTSTSSIFHDEDLTFFDRIPLNSNNNYYF | 102000
57 | RETDAWACGVVLYALCARRLPFGEGAARVEGESGGRIGREGGAREGAAARRHW | 32400
58 | CGFVVFVIRWSTVSVGYLGIIRWLVICKKLQFSEIKRIMRVYFCHMALFIFTL | 40900
59 | APAAADEEQEGESKNKKKKKKKGAKKAEADEEAVEAAAPAKGKKKGGAPIAAL | 54700
60 | VLLVLPLFFSFSLYHPLRLHPFRLFFFFFFFFLCIFFYFSPFPSFSCHFLFSS | 59100
61 | KQYCVRPNSGRIEPGSDVEVQILLQAMKEDPPLEAKCRDKFLVQSVAVSADKE | 45400
62 | MGWVHLIGRCLILPVHYVVPFFIFFYFAYTSILTTSIGLLGMDLSLRLVFLCS | 51000
63 | MLFPCGVLFLSVFSISDTYVAFFFFFFFSFGWSFVSIGFLLFTIFFLGISFFF | 32300

Row | Sequence | transcriptional activation domain activity
64 | MLDVILYLPCLLITYLCWAVWFLFIVFLCFLLCWFCFVIDGLFPFFFITFVFL | 56100
65 | MGGFFLFFFFFSFVDSFGVVYDMDMRSGGVFFFLPFLSTLFFLLLLGSVLFSC | 71600
66 | EAEDTAAARLKRAKSERMRLRTRVVQAMWAEASEEERGAAEAEVAREKEAIRA | 30400
67 | SFKPAPAPAAEEAPKTEETPAPAETEAAAEEAKPAEEPKKEEVKEEPKRRSAS | 35500
68 | HDDSFIESEEWLSKFIMDSQIDNDLKLNINHFNDIGFNNLHPQNPTTHSEPRN | 117000
69 | EDENKSKEETQEKKTNEPELNENNKDIAKKGEEEEEEEEADKDNNKTKKKKKN | 27500
70 | GNEREQREGRREKNGRGEKGKKEERRGRKKRGGGWKRVRRENQARKQGEKGEQ | 38100
71 | MVKSFALGGLILLFSFLLLLLLLSLLLLFISSLLSLSLIPFFLFDSLSIARFS | 64400
72 | CDAGILLCLVCYLSSKLIYLFLVEKVFIIRGNRQRWTDKLFLFNMFGMLLPYC | 51600
73 | MTLLFMWLIVRYILCYVSYYRRYAHRVGTQLPPTYPSFIPKYGTALSYLLAPA | 58700
74 | PIDPETGRPKKGRPRKSVDAASAVGTSSTGEPQAKRARGRPKKNAGAVAATAV | 51100
75 | VYPENYETASVNTERDMELLVGHFDFMAKEAFLADSISLCSTEEELERRLDTP | 102000
76 | MNPPIHSLSFLQSYICFMLIPPLPLMFIIVFHPLYFFWLFLSFLLLDYYLSLL | 37800
77 | CMLRFVIWLCSKWVPYRSGVWEEFKFLLDHPRRCFTLLFPSGANWWLFWVLIL | 60600
78 | RGSLREDESQHIATGVEGVHEARDGGRRTSNARAEKTKRVATPVCLSAAHTRG | 28600
79 | MFKSFLGHSDQNTFFFFVLLLLLLCCHISLRAFFIFLSWIQLLYVLQWDECDK | 47800
80 | NLFGWVRYAGVSVDHLKVHIVGAELWNRYKYAAGIWGYRALPIIALMASLIAC | 54200
81 | TSAFGNLGSSSSTPSVFGGAGAGTNNTGSGGGGGGGFSAFAGKPTAFGAGAAG | 39400
82 | PPPKGSDAALAAPPPPPGASGAPPPPPPKGSEAAAAAPPPPPPADASGAPPPP | 26100
83 | MSLICIYQTIGTFAQICSWYFEMVHAGLSGSDIAQLARSNVNRIWWYKLLFTT | 44500
